Experimental data from the supplement of paper PMC6755084.

system: F1*sub RNA substrate (template-directed ligation); experiment: fraction ligated after 30 min (ligated reads / total reads); higher = more ligase activity; sequences stand for … in GAGACCGCAACTGAAAAGTTGT…AGTTCTGCACGTAGAAGCAAAAGGC; settings: 42 °C
In short: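 The ligase ribozyme variants were produced by PCR amplification of oligo-pool templates, T7 transcription and purification on gel. Their ligated and unligated forms were gel-separated, then reverse transcribed with barcoded primers before MiSeq sequencing. Core bases were filtered at a quality of ≥20, and fraction ligated per variant was ligated reads over total reads.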

Sequence	fraction ligated
TATCACTTGTCGTAAGACACTTGGATGGGTT [3d2253]	0.239
TATCATTGTCGAAGAACTTTGGATGGGTTGA [3d1204]	0.809
TATCACTTTCGTAAGACATTTGGTGGGTTGA [3d1556]	0.284
TATCACTTGTGTAAGACCTTGGATGGGTTGA [3d1772]	0.856
TATCACTTGTCGTAAGAACTTTGGATGGTTG [3d2180]	0.0734
TTCCTTGCGTAAGACACTTTGGATGGGTTGA [3d300]	0.779
TCACTTGTCGTAGACACTTTGGATGGGTTGA [3d11]	0.765
TACATTGTCGTAGACACTTTGGATGGGTTGA [3d553]	0.0879
TATCACTTTCGTAAGACACTTTGGAGGTTGA [3d1578]	0.0266
TATCCTTGTCGTAAGACACTTTGGTGGTTGA [3d1111]	0.0166
TATCCTTGTCGTAAGACATTTGGATGGTTGA [3d1094]	0.0378
TTCACTTGTCTAAACACTTTGGATGGGTTGA [3d404]	0.719
TATCACTTGTCGAGACACTTTGGATGGGTTG [3d1914]	0.797
ATCACTTGTGTAAGACCTTTGGATGGGTTGA [3d162]	0.811
TATCACTTGTGTAAGACACTTTGGATGGTTA [3d1806]	0.101
TATCACTTGTCTAAGCACTTTGGTGGGTTGA [3d1851]	0.108
ATCACTGTCGTAAGAACTTTGGATGGGTTGA [3d114]	0.848
TCACTTGTCGTAAGACCTTTGGATGGGTTGA [3d15]	0.769
TATCACTGCGAAGACACTTTGGATGGGTTGA [3d1329]	0.831

Sequence	fraction ligated
TATCACTTGTCGTAAACACTTTGGTGGGTTG [3d2097]	0.0291
TATCACTTGTCGAAGACATTTGGATGGGTTA [3d1955]	0.788
TATCCTTGTCGTAAGACATTTGGATGGGTTA [3d1095]	0.455
TACACTTGTCGTAAGACCTTTGGTGGGTTGA [3d702]	0.138
TATACTTGTCGTAAACACTTTGGAGGGTTGA [3d889]	0.0111
TATCCTTGTCTAAGACACTTTGGATGGGTTA [3d1027]	0.394
TATCACTTGTCGTAAGACACTTGTGGGTTGA [3d2239]	0.00905
ATACTTGTCGTAAACACTTTGGATGGGTTGA [3d55]	0.112
TATCACTTTCTAAGACACTTTGGATGGGTTGA [2d148]	0.794
TATCACTTGTCGTAAGAACTTTGGAGGGTTGA [2d258]	0.0583
TATCACTTGTCGAAGAACTTGGATGGGTTGA [3d1936]	0.794
TATCACTTGTCTAAGACATTTGGTGGGTTGA [3d1873]	0.0508
TTCACTTGTGTAAGACATTTGGATGGGTTGA [3d394]	0.778
TATCACTTGCGTAAGACACTTTGGATGGGTTG [2d178]	0.825
TATCCTTCGTAAGACACTTTGGATGGGTTGA [3d950]	0.798
TATCCTTGTCGTGACACTTTGGATGGGTTGA [3d1042]	0.798
TATCACTTGCGTAAGCACTTTGGTGGGTTGA [3d1654]	0.366
TATCATTGCGTAAGACACTTTGGATGGGTTG [3d1171]	0.815
TATCACTTGTCGTAAGACACTTTGGATGGGTT [2d298]	0.772

Sequence	fraction ligated
ATCACTTGTCTAGACACTTTGGATGGGTTGA [3d172]	0.734
TATCACTTGTCGTAAACACTTGGATGGGTTA [3d2086]	0.492
ATCACTTGTCGTAAGCCTTTGGATGGGTTGA [3d222]	0.744
TATCCTGTCGTAAGACACTTTGGTGGGTTGA [3d963]	0.274
TATACTTGTCGTAAGACCTTTGGATGGTTGA [3d915]	0.0819
TATATTGTCGTAAGACACTTTGGAGGGTTGA [3d773]	0.0159
TACACTTGTGTAAGACACTTTGGATGGGTTG [3d631]	0.145
TATCACTTGTGAAGACACTTTGGATGGTTGA [3d1728]	0.243
ATCACTTGTCGTAAGACACTTTGGATGGTTG [3d274]	0.691
TATCACTTGTCTAGACACTTGGATGGGTTGA [3d1829]	0.796
TATACTGTCGTAAACACTTTGGATGGGTTGA [3d784]	0.721
TTACTTGTCGTAAGCACTTTGGATGGGTTGA [3d287]	0.00788
ATCACTTGCGTAAGCACTTTGGATGGGTTGA [3d145]	0.804
TATCACTGTCGTAAGACATTTGGATGGTTGA [3d1437]	0.606
TATCATTGTCGTAAGAACTTTGGTGGGTTGA [3d1250]	0.0672
TATACTTGTCGTAAGACACTTTGTGGGTTGA [3d933]	0.0152
TATCCTTGTCGTAAGAACTTTGGAGGGTTGA [3d1079]	0.00912
TATCACTTGTCGTAAGACACTTGGTGGGTTGA [2d278]	0.0691
